Reference: patent publication US20070224194A1, “Methods for Inhibiting Angiogenesis and/or Lymphangiogenesis” (LUDWIG INSTITUTE FOR CANCER RESEARCH, priority 2004, published 2007)
Values belong to the molecule of their own block, whether it stands above or below them.

What was measured:
[1] = biological target: VEGFR-2 (as used in the biosensor analysis) (UniProt P35968); test: SPR; conditions: ligand
[2] = biological target: VEGFR-3 (as used in the biosensor analysis) (UniProt P35916); test: SPR; conditions: ligand
[3] = biological target: VEGFR-2 (as used in the biosensor analysis) (UniProt P35968); test: SPR biosensor, 1:1 Langmuir model; reference VEGF-DSSTS.IISS on the same receptor
[4] = biological target: VEGFR-3 (as used in the biosensor analysis) (UniProt P35916); test: as above
furin = test: Knockdown of furin protein by shRNA (co-transfection of shRNA and furin expression constructs); type: cell-based, human
Text: Short hairpin RNA (shRNA) primers targeting furin RNA were designed using an in-house primer design algorithm. These primer pairs form the shRNA structure that then results in functional siRNA targeting sequences 457-476 and 558-575 of open reading frame of human furin sequence (Genbank Accession No. NM_002569.2, SEQ ID NO: 21). The underlined sections are structural motifs for the formation of the small hairpin RNA structure and for the ligation of the annealed primers to the parental vector. In bold the 5′-3′ upper strand of the target sequence which is naturally a part of the primer sequence.
The above shRNA primers were generated to target the sequences 5′-GACGATGGCATCGAGAAGAA-3′ (SEQ ID NO: 19) and 5′-ACA CAC AGA TGA ATG ACA A-3′ (SEQ ID NO: 20). Primers were annealed by heating a mix of 60 pM of both primers in 50 μl annealing buffer (0.1 M potassium acetate, 2 mM magnesium acetate, 30 mM HEPES pH 7.4) at 94° C. for 4 min then 70° C. for 10 min and allowed to cool to room temperature. Annealing was verified in 3% low melting point agarose gel. The shRNA construct was then ligated into pMSCVpac mU6 which is a derivative of pMSCV (Clontech). The shRNAs were validated by assessing reduction of furin protein levels resulting from co-transfections of shRNA and furin expression constructs in 293EBNA cells or other cell lines stably overexpressing furin.

[5] = biological target: T1, VEGFR-3 (as used in the biosensor analysis) (UniProt P35916 25-775); test: SPR
T1 chain: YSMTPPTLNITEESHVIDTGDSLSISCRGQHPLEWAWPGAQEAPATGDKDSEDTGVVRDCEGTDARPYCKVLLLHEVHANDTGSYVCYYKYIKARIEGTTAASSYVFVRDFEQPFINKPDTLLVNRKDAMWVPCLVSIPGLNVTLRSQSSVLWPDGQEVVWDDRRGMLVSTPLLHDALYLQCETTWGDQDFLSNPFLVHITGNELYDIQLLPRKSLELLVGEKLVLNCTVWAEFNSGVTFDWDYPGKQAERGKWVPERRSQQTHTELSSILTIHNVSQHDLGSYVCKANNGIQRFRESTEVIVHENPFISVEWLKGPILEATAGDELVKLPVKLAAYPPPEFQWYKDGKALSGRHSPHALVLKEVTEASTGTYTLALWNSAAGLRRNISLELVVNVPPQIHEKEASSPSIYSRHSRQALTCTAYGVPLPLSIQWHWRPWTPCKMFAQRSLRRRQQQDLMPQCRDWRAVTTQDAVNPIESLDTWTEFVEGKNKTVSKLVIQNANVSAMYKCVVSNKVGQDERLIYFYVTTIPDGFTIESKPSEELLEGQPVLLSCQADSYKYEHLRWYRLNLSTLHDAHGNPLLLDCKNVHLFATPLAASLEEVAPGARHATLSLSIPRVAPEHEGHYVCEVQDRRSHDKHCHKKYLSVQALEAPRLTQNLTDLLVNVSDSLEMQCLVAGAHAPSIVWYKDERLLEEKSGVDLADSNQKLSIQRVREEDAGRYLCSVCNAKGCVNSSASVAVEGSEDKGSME

[6] = biological target: T2, VEGFR-2 (as used in the biosensor analysis) (UniProt P35968 20-764); test: SPR
T2 chain: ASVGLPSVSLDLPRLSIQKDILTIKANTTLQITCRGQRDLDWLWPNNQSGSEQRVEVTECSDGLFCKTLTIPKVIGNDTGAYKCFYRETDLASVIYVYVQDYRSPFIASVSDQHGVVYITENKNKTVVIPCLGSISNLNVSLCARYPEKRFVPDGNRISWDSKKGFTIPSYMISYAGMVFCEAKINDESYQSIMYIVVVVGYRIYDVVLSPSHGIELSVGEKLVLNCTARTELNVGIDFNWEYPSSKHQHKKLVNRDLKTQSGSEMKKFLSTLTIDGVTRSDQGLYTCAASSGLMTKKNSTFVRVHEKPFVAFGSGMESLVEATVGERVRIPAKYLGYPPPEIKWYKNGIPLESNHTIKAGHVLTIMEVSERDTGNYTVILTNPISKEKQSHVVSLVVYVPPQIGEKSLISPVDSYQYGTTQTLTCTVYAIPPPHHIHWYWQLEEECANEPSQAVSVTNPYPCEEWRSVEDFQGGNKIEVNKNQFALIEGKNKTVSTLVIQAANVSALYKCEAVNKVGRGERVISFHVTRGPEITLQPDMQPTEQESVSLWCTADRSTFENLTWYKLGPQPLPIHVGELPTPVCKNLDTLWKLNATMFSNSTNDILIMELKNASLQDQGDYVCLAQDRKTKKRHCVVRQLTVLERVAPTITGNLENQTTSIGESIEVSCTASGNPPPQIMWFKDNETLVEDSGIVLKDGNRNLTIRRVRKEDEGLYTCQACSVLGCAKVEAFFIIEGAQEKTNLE

[7] = biological target: VEGFR-2 (as used in the biosensor analysis) (UniProt P35968); test: SPR biosensor, 1:1 Langmuir model; reference VEGF-DSSTS.IISS on the same receptor; the preparation held traces of processed forms
VEGFR-2 = VEGFR-2 (Homo sapiens, UniProt P35968); test: Biosensor analysis (surface plasmon resonance) of VEGF-D ligands on VEGFR-2; type: binding; conditions: 1:1 Langmurian model
VEGFR-2, sequence (P35968 20-1356): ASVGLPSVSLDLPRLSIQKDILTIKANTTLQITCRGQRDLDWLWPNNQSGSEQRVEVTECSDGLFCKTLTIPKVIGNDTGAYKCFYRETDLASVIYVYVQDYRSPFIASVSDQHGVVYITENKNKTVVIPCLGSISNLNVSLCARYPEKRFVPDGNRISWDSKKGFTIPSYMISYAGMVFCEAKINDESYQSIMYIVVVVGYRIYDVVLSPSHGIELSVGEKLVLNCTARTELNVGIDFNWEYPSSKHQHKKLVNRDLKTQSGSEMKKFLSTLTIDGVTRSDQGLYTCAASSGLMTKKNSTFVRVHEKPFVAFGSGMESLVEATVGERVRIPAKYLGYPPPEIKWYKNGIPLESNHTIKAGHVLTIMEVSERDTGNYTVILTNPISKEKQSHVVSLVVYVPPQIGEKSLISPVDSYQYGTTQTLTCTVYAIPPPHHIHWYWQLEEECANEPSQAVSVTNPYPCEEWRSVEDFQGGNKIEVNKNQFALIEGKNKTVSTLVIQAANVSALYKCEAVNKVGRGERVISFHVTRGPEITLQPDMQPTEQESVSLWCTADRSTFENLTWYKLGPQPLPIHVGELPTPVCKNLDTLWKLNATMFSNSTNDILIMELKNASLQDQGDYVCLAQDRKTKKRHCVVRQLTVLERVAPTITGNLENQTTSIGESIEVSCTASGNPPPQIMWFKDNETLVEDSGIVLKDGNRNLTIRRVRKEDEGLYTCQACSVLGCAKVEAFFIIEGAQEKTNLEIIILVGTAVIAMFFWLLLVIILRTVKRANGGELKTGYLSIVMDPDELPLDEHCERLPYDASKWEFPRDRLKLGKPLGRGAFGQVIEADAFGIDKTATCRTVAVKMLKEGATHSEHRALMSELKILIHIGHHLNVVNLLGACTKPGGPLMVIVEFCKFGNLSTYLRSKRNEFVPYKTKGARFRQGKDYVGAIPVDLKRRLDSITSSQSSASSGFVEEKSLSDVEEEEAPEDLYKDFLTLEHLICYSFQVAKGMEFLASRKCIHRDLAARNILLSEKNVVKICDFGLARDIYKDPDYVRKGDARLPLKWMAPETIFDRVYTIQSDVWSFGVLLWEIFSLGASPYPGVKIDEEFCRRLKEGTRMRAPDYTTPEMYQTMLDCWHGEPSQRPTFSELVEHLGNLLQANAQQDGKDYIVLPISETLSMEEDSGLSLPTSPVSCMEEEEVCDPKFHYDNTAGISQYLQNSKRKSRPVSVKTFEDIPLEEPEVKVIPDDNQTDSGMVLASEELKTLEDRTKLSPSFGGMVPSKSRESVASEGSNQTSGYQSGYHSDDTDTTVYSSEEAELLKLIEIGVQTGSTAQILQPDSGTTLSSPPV
Experimental: To determine the relative affinities of the ligands VEGF-DSSTS.IISS, VEGF-D-FULL-N-FLAG and mature VEGF-D (designated VEGF-DΔNΔC) for VEGFR-2 and VEGFR-3, the relative binding kinetics for these interactions was analyzed by biosensor analysis using surface plasmon resonance detection (Nice et al., Bioessays, 21:339-352, 1999). The preparations of VEGF-DSSTS.IISS and VEGF-DΔNΔC used for this analysis each consisted of one VEGF-D species devoid of other forms of VEGF-D but the preparation of VEGF-D-FULL-N-FLAG did contain traces of partially processed as well as full-length material, reflecting the capacity of wild-type full-length VEGF-D to be proteolytically processed in the 293EBNA cell cultures) from which these proteins were purified (see FIG. 10B). The binding constants for the interactions were obtained by analysis of the initial dissociation phase to obtain the kd, which was then used to constrain a global analysis of the association region of the curves, using regions of the curves where a 1:1 Langmurian model appeared to be operative.

Kd [1]: 0.0087 µM | Kd [2]: 0.044 µM
Molecule: mature VEGF-D (designated VEGF-DΔNΔC) (from UniProt O43915 93-201)

fold greater apparent affinity than VEGF-DSSTS.IISS [3]: 17000 fold | fold greater affinity than VEGF-DSSTS.IISS [4]: 18 fold
Molecule: mature VEGF-D (designated VEGF-DΔNΔC) (from UniProt O43915 93-201) (ligand)

B1: Second shRNA pair: shRNA primer pair (SEQ ID NO:17 and 18) targeting bases 558-575 of human furin (nucleic acid)
chain 1: CACACAGATGAATGACAATTCAAGAGATTGTCATTCATCTGTGTGTTTTTT
chain 2: AATTAAAAAACACACAGATGAATGACAATCTCTTGAATTGTCATTCATCTGTGTG
knockdown of protein expression in vitro (furin): 70-80%

Kd [5]: 0.49 µM | Kd [6]: 1.6 µM | fold greater affinity than VEGF-DSSTS.IISS [7]: 94 fold
B2: VEGF-D-FULL-N-FLAG (full-length VEGF-D tagged with FLAG at the N-terminus) (ligand)
chain: NEHGPVKRSSQSTLERSEQQIRAASSLEELLRITHSEDWKLWRCRLRLKSFTSMDSRSASHRSTRFAATFYDIETLKVIDEEWQRTQCSPRETCVEVASELGKSTNTFFKPPCVNVFRCGGCCNEESLICMNTSTSYISKQLFEISVPLTSVPELVPVKVANHTGCKCLPTAPRHPYSIIRRSIQIPEEDRCSHSKKLCPIDMLWDSNKCKCVLQEENPLAGTEDHSHLQEPALCGPHMMFDEDRCECVCKTPCPKDLIQHPKNCSCFECKESLETCCQKHKLFHPDTCSCEDRCPFHTRPCASGKTACAKHCRFPKEKRAAQGPHSRKNP

apparent affinity for VEGFR-2 relative to unprocessed mutant VEGF-DSSTS.IISS (VEGFR-2): ~94 fold
B3: VEGF-D-FULL-N-FLAG: full-length VEGF-D tagged with FLAG at the N-terminus; preparation contained traces of partially processed material (protein)
chain: NEHGPVKRSSQSTLERSEQQIRAASSLEELLRITHSEDWKLWRCRLRLKSFTSMDSRSASHRSTRFAATFYDIETLKVIDEEWQRTQCSPRETCVEVASELGKSTNTFFKPPCVNVFRCGGCCNEESLICMNTSTSYISKQLFEISVPLTSVPELVPVKVANHTGCKCLPTAPRHPYSIIRRSIQIPEEDRCSHSKKLCPIDMLWDSNKCKCVLQEENPLAGTEDHSHLQEPALCGPHMMFDEDRCECVCKTPCPKDLIQHPKNCSCFECKESLETCCQKHKLFHPDTCSCEDRCPFHTRPCASGKTACAKHCRFPKEKRAAQGPHSRKNP
modifications: left off: small tags and cut ends
notes: full-length VEGF-D tagged with FLAG at the N-terminus; preparation contained traces of partially processed material

Kd [5]: 0.79 µM | Kd [6]: 150 µM
B4: VEGF-DSSTS.IISS (ligand)
chain: NEHGPVKRSSQSTLERSEQQIRAASSLEELLRITHSEDWKLWRCRLRLKSFTSMDSRSASHSSTSFAATFYDIETLKVIDEEWQRTQCSPRETCVEVASELGKSTNTFFKPPCVNVFRCGGCCNEESLICMNTSTSYISKQLFEISVPLTSVPELVPVKVANHTGCKCLPTAPRHPYSIISSSIQIPEEDRCSHSKKLCPIDMLWDSNKCKCVLQEENPLAGTEDHSHLQEPALCGPHMMFDEDRCECVCKTPCPKDLIQHPKNCSCFECKESLETCCQKHKLFHPDTCSCEDRCPFHTRPCASGKTACAKHCRFPKEKRAAQGPHSRKNP

B5: First primer pair: shRNA primer pair (SEQ ID NO:15 and 16) targeting bases 457-476 of human furin (nucleic acid)
chain 1: GACGATGGCATCGAGAAGAATTCAAGAGATTCTTCTCGATGCCATCGTCTTTTTT
chain 2: AATTAAAAAAGACGATGGCATCGAGAAGAATCTCTTGAATTCTTCTCGATGCCATCGTC
knockdown of furin protein expression in vitro (furin): almost complete knockdown
